The results in this text go back to publication PMC3596498.

In the assay the target is SciP (Caulobacter crescentus).

B1: C. crescentus Lon (enzyme)
chain: MSELRTLPVLPLRDIVVFPHMVVPLFVGRDKSVRALEEVMRGDKQILLVTQKNSADDDPAPGDIFEVGVLATVLQLLKLPDGTVKVLVEGKARAAVVSFTDQESYYEAQIGEVSEDDGAGPEAEALSRAVVEQFENYVKLNKKVPPEALASIPQIAEPGKLADSIAAHLSVKIGDKQNLLEIFDVVKRLEKVFALMEGEISVLQVEKKIRSRVKRQMEKTQREYYLNEQMKAIQRELGDPDDARDELIDLEKRIKKTKLSKEARTKAESELKKLRNMSPMSAESTVVRNYLDWLLSIPWGKAKTKKIDLVESEGILDADHYGLEKVKERILEYLAVQARTNSLKGPILCLVGPPGVGKTSLGKSIAKATGREFVRMSLGGVRDEAEIRGHRRTYIGSMPGKVVQSMKKAKTTNAFVLLDEIDKMGSDYRGDPASALLEVLDPSQNSTFGDHYLEVDYDLSQVMFVTTANSLNMPQPLLDRMEIIRIPGYTEDEKLEIAKRHILPKLAKDHGLKPAEFIVPDKAIRDLIRYYTREAGVRSLERELGALARKTVRDLAREKVASITIDDERLAKYAGVKKYRYGETDEVDQVGIVTGLAWTEFGGDILTIEAVKMPGKGRMQITGNLKDVMKESIAAANSYVRSRALQFGIKPPVFEKTDVHIHVPDGATPKDGPSAGIAMALAMVSVLTGIPIRKDIAMTGEITLRGRVTAIGGLKEKLLAALRSGVKTVLIPQENEKDLADVPQTVKDGLEIIPVSTVDEVLKHALTGPLTPVEWNEAEEPITTSAKKDDGDSDAMLTH
B1 registered a half-life of purified SciP (0.5 µM) degraded by purified Lon (0.5 µM) in vitro of 12 min.
